# Measured values published in PMC11090809.
# Molecular target: empty AAVHSC-15 capsid (OXBS1-E fraction of AAV-OXBS1) (AAVHSC-15 (Clade F adeno-associated virus))
# Assay: charge detection mass spectrometry (CDMS); OXBS1-E fraction sprayed into a CDMS instrument (Megadalton Solutions); single ions trapped, charge detected, masses calculated; n = 1
substance,measurement,value
empty AAVHSC-15 capsid (OXBS1-E fraction of AAV-OXBS1) (complex),% relative abundance of the dimer peak,20%
same,stoichiometry N,2
